For two substances, stoichiometry N and dUTPase enzymatic assay (37°C, 5 min, no reducing agent) results are on record in PMC6199149.

For assay [1], the target named is nuclear dUTP nucleotidohydrolase (nuclear isoform of dUTPase), endogenous (human (endogenous in U-2 OS, Saos2, A549, 18Co, HeLa)). As to the kind of experiment: cross-linking.
Assay [2] has the same target. As to the kind of experiment: non-reducing SDS-PAGE with western blot.
Assay [3] concerns the target recombinant Wt nuclear dUTPase with N-terminal hexahistidine tag, from E. coli (human). The note with it: scale: pmol of dUTP per minute per ng of protein.

As to “nuclear dUTP nucleotidohydrolase (nuclear isoform of dUTPase), endogenous (enzyme)”, the stoichiometry N in assay [1] and in assay [2] was 2 each time.

In the case of “recombinant Wt nuclear dUTPase with N-terminal hexahistidine tag, from E. coli (enzyme)”, the dUTPase enzymatic assay (37°C, 5 min, no reducing agent) in assay [3] stood at 7.27.
